Measured values reported in patent US9446226B2, “Drug-delivering composite structures” (Ramot at Tel-Aviv University Ltd., priority 2005, dated 2016).

Key:
[1] = In-vitro HRP release from composite fibrous structures; type: physicochemical
Experimental: Various samples of HRP-containing composite fibrous structures were used to determine the release kinetics of HRP over a time period of 90 days. The HRP release studies were conducted in closed 1 ml glass vessels in which the HRP-containing composite fibrous structures were immersed in 1 ml sterile double-distilled water containing sodium azide as preservative (0.05% w/w) at 37° C. The entire aqueous medium was replaced periodically by fresh medium and HRP content in the removed medium was determined by the micro BCA assay method, by measuring absorbance at 595 nm.
Cumulative HRP release profiles were determined relative to the initial amount of HRP in each of the tested structures, i.e., the amount of HRP released during the incubation period and the residual HPR remaining in the structures. All experiments were performed in triplicate.
Residual protein recovery front composite fibrous structures: Residual protein recovery from spent composite fibrous structure samples used in the abovementioned in-vitro release experiments was conducted according to a previously described method [Jeffery H et al., Pharm. Res., 1993, 10(3), pp 362-368].
Briefly, composite fibrous structures were extracted in 1 ml sodium dodecyl sulfate (SDS)/NaOH 5%/0.1 M solution for 48 hours at 37° C. Following extraction, the HRP concentration was estimated using a micro BCA assay method as described hereinabove. Based on these assays, the exact amount of the HRP loaded in each structure was determined and served for calculating the percentages cited in the assays above.

[2] = as obtained from Aldrich; cited from earlier work
[3] = In vitro paclitaxel release from composite fibrous structures; type: physicochemical; conditions: PBS 37° C.
Experimental: Cumulative release of paclitaxel from samples of composite fibrous structures was monitored and followed over a time period of four months. Samples of composite structures were immersed in PBS at 37° C. for 112 days. The medium was entirely removed periodically and assayed for drug release, and fresh medium was introduced. The paclitaxel content of each medium sample was determined using Agilent 1100 High Performance Liquid Chromatography (HPLC).

Row | paclitaxel released during the first 24 hours ([3]; emulsions containing 2.9% w/w paclitaxel) | paclitaxel released during the first 24 hours ([3]; fibers coated with emulsion containing 7.14% w/w paclitaxel) | burst effect of paclitaxel release during the first days ([3]; standard reference emulsion (17.5% w/v polymer, 1.43% w/w paclitaxel, O:A 2:1), nylon core) | Molecule | initial burst of HRP release ([1]; 1% w/w HRP load, O:A 4:1, water with sodium azide, 37° C.) | initial burst of HRP release (mean) ([1]; 5% w/w HRP load, O:A 4:1, water with sodium azide, 37° C.) | active enzyme released during the 90 day experiment ([1]; 5% w/w HRP load, O:A 4:1, 8:1, 16:1, coat-polymer 13%, 15%, 19% w/v, 90 days) | burst effect of HRP release ([1]; O:A 4:1 formulations, 5% w/w HRP load) | burst effect of HRP release ([1]; O:A 8:1, 5% w/w HRP, highest coat-polymer content (19% w/v)) | burst effect of HRP release ([1]; O:A 8:1, 5% w/w HRP, lowest coat-polymer content (13% w/v)) | burst effect of HRP release ([1]; O:A 16:1, 5% w/w HRP, highest coat-polymer content (19% w/v)) | burst effect of HRP release ([1]; O:A 16:1, 5% w/w HRP, lowest coat-polymer content (13% w/v)) | burst effect of HRP release ([1]; O:A 16:1 formulations, 5% w/w HRP load) | initial enzymatic activity [2]
1 | – | – | – | Horseradish peroxidase [HRP] | 20% | 70% | at least 90% | 70-80% | 26% | 66% | 10% | 20% | 10-20% | 500 U/mg
2 | 3% | 7% | less than 3% | CC(=O)O[C@H]1C(=O)[C@@]2(C)[C@H]([C@H](OC(=O)c3ccccc3)[C@]3(O)C[C@H](OC(=O)[C@H](O)[C@@H](NC(=O)c4ccccc4)c4ccccc4)C(C)=C1C3(C)C)[C@]1(OC(C)=O)CO[C@@H]1C[C@@H]2O [paclitaxel, Paclitaxel] | – | – | – | – | – | – | – | – | – | –
